Measurements as given in PMC9482650, “Quantitative fragmentomics allow affinity mapping of interactomes” (Nature Communications, 2022).

Experiments:
Test in all cases: holdup assay
Design in all cases: key: below the threshold = too weak to quantify, mostly under pKd 3.1 to 4
AHNAK2, Q8IVF2 = target: AHNAK2, Q8IVF2
APBA3_2, O96018 = target: T1, APBA3_2, O96018
T1 sequence (O96018 480-570, limits assumed, looked up): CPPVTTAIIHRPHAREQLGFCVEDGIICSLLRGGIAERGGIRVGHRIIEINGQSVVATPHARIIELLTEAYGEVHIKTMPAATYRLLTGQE

CARD14, Q9BXL6 = target: CARD14, Q9BXL6
DLG2_1, Q15700 = target: DLG2_1, Q15700
Inadl_7, Q8NI35 = target: Inadl_7, Q8NI35
LMO7, Q8WWI1 = target: LMO7, Q8WWI1
MAGI1_5, Q96QZ7 = target: MAGI1_5, Q96QZ7
MAGI3_3, Q5TCQ9 = target: MAGI3_3, Q5TCQ9
MAGI3_6, Q5TCQ9 = target: MAGI3_6, Q5TCQ9
NHERF2_1, Q15599 = target: NHERF2_1, Q15599
NHERF3_2, Q5T2W1 = target: T2, NHERF3_2, Q5T2W1
T2 sequence (Q5T2W1 129-225, limits assumed, looked up): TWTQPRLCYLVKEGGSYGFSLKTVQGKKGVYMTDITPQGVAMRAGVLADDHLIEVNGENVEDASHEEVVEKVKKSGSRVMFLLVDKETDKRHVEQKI

PARD3B_2, Q8TEW8 = target: PARD3B_2, Q8TEW8
PARD3_1, Q8TEW0 = target: PARD3_1, Q8TEW0
PARD6G, Q9BYG4 = target: T3, PARD6G, Q9BYG4
T3 sequence (Q9BYG4 153-261, limits assumed, looked up): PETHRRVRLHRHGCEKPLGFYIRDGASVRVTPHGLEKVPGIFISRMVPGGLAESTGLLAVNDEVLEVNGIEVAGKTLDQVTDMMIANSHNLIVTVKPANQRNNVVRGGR

PDZD11, Q5EBL8 = target: T4, PDZD11, Q5EBL8
T4 sequence (Q5EBL8 42-139, limits assumed, looked up): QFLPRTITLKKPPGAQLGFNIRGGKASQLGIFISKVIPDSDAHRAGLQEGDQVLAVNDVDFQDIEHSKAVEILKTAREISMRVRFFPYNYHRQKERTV

PDZD2_1, O15018 = target: T5, PDZD2_1, O15018
T5 sequence (O15018 80-192, limits assumed, looked up): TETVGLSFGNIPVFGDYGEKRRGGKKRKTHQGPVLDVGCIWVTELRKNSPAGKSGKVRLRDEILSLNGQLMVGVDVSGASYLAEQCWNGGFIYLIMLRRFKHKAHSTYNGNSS

PDZD2_5, O15018 = target: T6, PDZD2_5, O15018
T6 sequence (O15018 2617-2716, limits assumed, looked up): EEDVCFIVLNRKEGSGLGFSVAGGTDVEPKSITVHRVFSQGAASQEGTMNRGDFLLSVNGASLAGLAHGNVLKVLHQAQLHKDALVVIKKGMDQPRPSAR

PDZD7_1, Q9H5P4 = target: T7, PDZD7_1, Q9H5P4
T7 sequence (Q9H5P4 81-178, limits assumed, looked up): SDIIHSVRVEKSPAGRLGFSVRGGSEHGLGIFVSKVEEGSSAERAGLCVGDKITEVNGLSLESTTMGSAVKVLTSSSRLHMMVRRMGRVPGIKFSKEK

PDZD7_2, Q9H5P4 = target: T8, PDZD7_2, Q9H5P4
T8 sequence (Q9H5P4 205-303, limits assumed, looked up): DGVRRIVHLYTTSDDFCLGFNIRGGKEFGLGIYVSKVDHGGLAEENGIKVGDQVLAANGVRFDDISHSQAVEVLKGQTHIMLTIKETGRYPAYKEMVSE

PDZRN4_2, Q6ZMN7 = target: PDZRN4_2, Q6ZMN7
PREX2_2, Q70Z35 = target: T9, PREX2_2, Q70Z35
T9 sequence (Q70Z35 672-764, limits assumed, looked up): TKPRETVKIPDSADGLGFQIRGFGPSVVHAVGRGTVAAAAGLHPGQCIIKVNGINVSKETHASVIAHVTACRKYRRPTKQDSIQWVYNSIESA

PTPN13_2, Q12923 = target: PTPN13_2, Q12923
SCRIB_4, Q14160 = target: SCRIB_4, Q14160
SHROOM2, Q13796 = target: T10, SHROOM2, Q13796
T10 sequence (Q13796 21-118, limits assumed, looked up): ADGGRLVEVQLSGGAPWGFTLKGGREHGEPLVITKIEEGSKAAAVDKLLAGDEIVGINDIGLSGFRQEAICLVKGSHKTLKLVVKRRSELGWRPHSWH

SIPA1L3, O60292 = target: T11, SIPA1L3, O60292
T11 sequence (O60292 961-1052, limits assumed, looked up): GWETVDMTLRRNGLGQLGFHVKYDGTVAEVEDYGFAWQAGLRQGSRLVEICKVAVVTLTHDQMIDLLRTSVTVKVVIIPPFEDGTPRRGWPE

TJP3_2, O95049 = target: T12, TJP3_2, O95049
T12 sequence (O95049 190-282, limits assumed, looked up): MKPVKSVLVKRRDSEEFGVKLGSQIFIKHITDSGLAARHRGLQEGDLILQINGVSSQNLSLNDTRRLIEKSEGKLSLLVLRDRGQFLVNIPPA

[1] = plain residues with an end cap or a label only (N-terminal biotin on a linker: none)
[2] = plain residues with an end cap or a label only (N-terminal biotin on a linker: ttds)

Chain of NHERF2_1, Q15599 (Q15599 9-91): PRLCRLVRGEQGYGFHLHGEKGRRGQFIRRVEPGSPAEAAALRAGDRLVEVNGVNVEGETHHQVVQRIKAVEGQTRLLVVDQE
Chain of SCRIB_4, Q14160 (Q14160 1095-1204): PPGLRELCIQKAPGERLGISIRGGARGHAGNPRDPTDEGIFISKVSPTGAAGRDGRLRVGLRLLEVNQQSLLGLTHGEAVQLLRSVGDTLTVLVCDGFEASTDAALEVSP
Chain of PDZRN4_2, Q6ZMN7 (Q6ZMN7 389-498): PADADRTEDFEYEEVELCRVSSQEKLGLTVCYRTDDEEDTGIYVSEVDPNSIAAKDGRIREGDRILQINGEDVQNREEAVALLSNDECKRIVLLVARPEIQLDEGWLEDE
Chain of MAGI3_6, Q5TCQ9 (Q5TCQ9 1014-1103): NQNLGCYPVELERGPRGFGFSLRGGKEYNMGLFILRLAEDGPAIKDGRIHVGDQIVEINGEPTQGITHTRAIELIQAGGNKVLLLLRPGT
Chain of MAGI1_5, Q96QZ7 (Q96QZ7 986-1098): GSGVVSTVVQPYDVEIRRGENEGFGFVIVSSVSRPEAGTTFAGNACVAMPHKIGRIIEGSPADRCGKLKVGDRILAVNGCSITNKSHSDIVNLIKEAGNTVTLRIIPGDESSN
Chain of PTPN13_2, Q12923 (Q12923 1363-1462): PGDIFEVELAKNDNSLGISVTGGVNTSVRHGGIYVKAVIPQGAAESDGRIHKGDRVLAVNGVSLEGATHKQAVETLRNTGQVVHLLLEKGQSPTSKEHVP
Chain of CARD14, Q9BXL6 (Q9BXL6 558-663): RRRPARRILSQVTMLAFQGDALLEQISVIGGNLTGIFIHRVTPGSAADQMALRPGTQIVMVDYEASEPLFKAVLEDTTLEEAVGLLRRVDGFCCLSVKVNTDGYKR
Chain of Inadl_7, Q8NI35 (Q8NI35 1219-1332): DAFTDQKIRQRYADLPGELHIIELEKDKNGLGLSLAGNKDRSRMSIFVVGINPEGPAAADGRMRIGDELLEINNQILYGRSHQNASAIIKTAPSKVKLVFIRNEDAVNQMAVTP
Chain of AHNAK2, Q8IVF2 (Q8IVF2 108-193): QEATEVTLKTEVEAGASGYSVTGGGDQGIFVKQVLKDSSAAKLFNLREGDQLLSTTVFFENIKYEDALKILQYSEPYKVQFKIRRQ
Chain of PARD3B_2, Q8TEW8 (Q8TEW8 376-471): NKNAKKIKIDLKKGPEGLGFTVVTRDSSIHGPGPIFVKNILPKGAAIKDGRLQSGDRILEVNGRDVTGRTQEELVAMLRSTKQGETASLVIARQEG
Chain of PARD3_1, Q8TEW0 (Q8TEW0 264-372): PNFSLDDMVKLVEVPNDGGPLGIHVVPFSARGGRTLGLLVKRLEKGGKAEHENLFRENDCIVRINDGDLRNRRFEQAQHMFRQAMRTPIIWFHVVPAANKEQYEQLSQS
Chain of MAGI3_3, Q5TCQ9 (Q5TCQ9 572-655): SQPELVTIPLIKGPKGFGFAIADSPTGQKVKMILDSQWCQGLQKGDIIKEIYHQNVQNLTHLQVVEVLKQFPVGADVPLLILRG
Chain of LMO7, Q8WWI1 (Q8WWI1 1037-1138): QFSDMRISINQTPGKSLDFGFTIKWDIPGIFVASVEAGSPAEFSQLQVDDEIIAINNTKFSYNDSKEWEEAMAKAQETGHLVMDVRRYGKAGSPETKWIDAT

B1: MERS-E, K9N5R3 (peptide)
chain: DSKPPLPPDEWV
For B1, the pKd (AHNAK2, Q8IVF2; [1]) was “below the threshold”, the pKd (APBA3_2, O96018; [1]) was “below the threshold” and the pKd (CARD14, Q9BXL6; [1]) was “below the threshold”. The pKd (DLG2_1, Q15700; [1]) was “below the threshold”, the pKd (Inadl_7, Q8NI35; [1]) was “below the threshold” and the pKd (LMO7, Q8WWI1; [1]) was “below the threshold”. For the same binder, the pKd (MAGI1_5, Q96QZ7; [1]) was “below the threshold”, the pKd (MAGI3_3, Q5TCQ9; [1]) was “below the threshold” and the pKd (MAGI3_6, Q5TCQ9; [1]) was 4.03. For the same binder, the pKd (NHERF2_1, Q15599; [1]) was “below the threshold”, the pKd (NHERF3_2, Q5T2W1; [1]) was “below the threshold” and the pKd (PARD3B_2, Q8TEW8; [1]) was “below the threshold”. For the same binder, the pKd (PARD3_1, Q8TEW0; [1]) was “below the threshold”, the pKd (PARD6G, Q9BYG4; [1]) was “below the threshold” and the pKd (PDZD11, Q5EBL8; [1]) was “below the threshold”. The pKd (PDZD2_1, O15018; [1]) was “below the threshold”, the pKd (PDZD2_5, O15018; [1]) was “below the threshold” and the pKd (PDZD7_1, Q9H5P4; [1]) was “below the threshold”. The pKd (PDZD7_2, Q9H5P4; [1]) was “below the threshold”, the pKd (PDZRN4_2, Q6ZMN7; [1]) was 3.75 and the pKd (PREX2_2, Q70Z35; [1]) was “below the threshold”. The pKd (PTPN13_2, Q12923; [1]) was 4.35, the pKd (SCRIB_4, Q14160; [1]) was 3.92 and the pKd (SHROOM2, Q13796; [1]) was “below the threshold”. For the same binder, the pKd (SIPA1L3, O60292; [1]) was 3.73 and the pKd (TJP3_2, O95049; [1]) was “below the threshold”.

B2: ASIC3, Q9UHC3 (peptide)
chain: HRTCYLVTQL
In the case of B2, the pKd (AHNAK2, Q8IVF2; [2]) is reported as “below the threshold”, the pKd (APBA3_2, O96018; [2]) is reported as “below the threshold” and the pKd (CARD14, Q9BXL6; [2]) is reported as “below the threshold”. For the same binder, the pKd (DLG2_1, Q15700; [2]) was “below the threshold”, the pKd (Inadl_7, Q8NI35; [2]) was 4.05 and the pKd (LMO7, Q8WWI1; [2]) was “below the threshold”. For the same binder, the pKd (MAGI1_5, Q96QZ7; [2]) was 5.13, the pKd (MAGI3_3, Q5TCQ9; [2]) was “below the threshold” and the pKd (MAGI3_6, Q5TCQ9; [2]) was “below the threshold”. The pKd (NHERF2_1, Q15599; [2]) was 4.56, the pKd (NHERF3_2, Q5T2W1; [2]) was 4.33 and the pKd (PARD3B_2, Q8TEW8; [2]) was “below the threshold”. For the same binder, the pKd (PARD3_1, Q8TEW0; [2]) was “below the threshold”, the pKd (PARD6G, Q9BYG4; [2]) was “below the threshold” and the pKd (PDZD11, Q5EBL8; [2]) was “below the threshold”. For the same binder, the pKd (PDZD2_1, O15018; [2]) was “below the threshold”, the pKd (PDZD2_5, O15018; [2]) was “below the threshold” and the pKd (PDZD7_1, Q9H5P4; [2]) was “below the threshold”. The pKd (PDZD7_2, Q9H5P4; [2]) was “below the threshold”, the pKd (PDZRN4_2, Q6ZMN7; [2]) was “below the threshold” and the pKd (PREX2_2, Q70Z35; [2]) was “below the threshold”. For the same binder, the pKd (PTPN13_2, Q12923; [2]) was “below the threshold”, the pKd (SCRIB_4, Q14160; [2]) was “below the threshold” and the pKd (SHROOM2, Q13796; [2]) was “below the threshold”. The pKd (SIPA1L3, O60292; [2]) was “below the threshold” and the pKd (TJP3_2, O95049; [2]) was “below the threshold”.

B3: DGKK, Q5KSL6 (peptide)
chain: DPLTPSRSQL
B3 was tested, and the pKd (AHNAK2, Q8IVF2; [2]) was “below the threshold”, the pKd (APBA3_2, O96018; [2]) was 4.47 and the pKd (CARD14, Q9BXL6; [2]) was “below the threshold”. The pKd (DLG2_1, Q15700; [2]) was “below the threshold”, the pKd (Inadl_7, Q8NI35; [2]) was “below the threshold” and the pKd (LMO7, Q8WWI1; [2]) was “below the threshold”. For the same binder, the pKd (MAGI1_5, Q96QZ7; [2]) was “below the threshold”, the pKd (MAGI3_3, Q5TCQ9; [2]) was “below the threshold” and the pKd (MAGI3_6, Q5TCQ9; [2]) was “below the threshold”. The pKd (NHERF2_1, Q15599; [2]) was “below the threshold”, the pKd (NHERF3_2, Q5T2W1; [2]) was “below the threshold” and the pKd (PARD3B_2, Q8TEW8; [2]) was “below the threshold”. The pKd (PARD3_1, Q8TEW0; [2]) was “below the threshold”, the pKd (PARD6G, Q9BYG4; [2]) was “below the threshold” and the pKd (PDZD11, Q5EBL8; [2]) was “below the threshold”. For the same binder, the pKd (PDZD2_1, O15018; [2]) was “below the threshold”, the pKd (PDZD2_5, O15018; [2]) was “below the threshold” and the pKd (PDZD7_1, Q9H5P4; [2]) was “below the threshold”. For the same binder, the pKd (PDZD7_2, Q9H5P4; [2]) was “below the threshold”, the pKd (PDZRN4_2, Q6ZMN7; [2]) was 4.05 and the pKd (PREX2_2, Q70Z35; [2]) was “below the threshold”. For the same binder, the pKd (PTPN13_2, Q12923; [2]) was 4.4, the pKd (SCRIB_4, Q14160; [2]) was “below the threshold” and the pKd (SHROOM2, Q13796; [2]) was “below the threshold”. The pKd (SIPA1L3, O60292; [2]) was “below the threshold” and the pKd (TJP3_2, O95049; [2]) was “below the threshold”.
